The labels stand for the following.
B1: recMoPrP(23–230) (natural protein)
chain: not shown
B2: recMoPrP(89–230) (domain or fragment)
chain: not shown
B3: recMoDpl(26–155) (domain or fragment, mouse, UniProt Q9QUG3 26-155, looked up)
chain: ARGIKHRFKWNRKVLPSSGGQITEARVAENRPGAFIKQGRKLDIDFGAEGNRYYAANYWQFPDGIYYEGCSEANVTKEMLVTSCVNATQAANQAEFSREKQDSKLHQRVLWRLIKEICSAKHCDFWLERG
notes: also called recDpl

Holding throughout (assay): SPR; Biacore 2000, 20°C; […] (10 mM HEPES, 150 mM NaCl), pH 7.4, 20 µL/min; 1:1 (Langmuir) model
What all share (settings): both partners purified

For the test “recMoDpl(26–155)”, the target named is B3.
The test “recMoPrP(23–230)” concerns the target B1.
The test “recMoPrP(89–230)” deals with B2.

The text below walks through data of PMC2693666 (PLoS ONE, 2009).

On to B1, for which the “stoichiometry N” value in the test with recMoDpl(26–155) is 1.
For the molecule B2, in the test with recMoDpl(26–155), the “stoichiometry N” value came out at 1.
On to B3, for which, in the test with recMoPrP(23–230), the affinity, expressed as Kd, was 11 nM; the koff was 0.0013 s⁻¹; the kon amounted to 120000 M⁻¹ s⁻¹. Moreover, in the test with recMoPrP(89–230), the Kd was determined as 100 nM, the koff turned out to be 0.00087 s⁻¹ and the kon turned out to be 8400 M⁻¹ s⁻¹.

One may read the stoichiometry N as the number of molecules, sites or subunits per partner or assembly. Broadly, the Kd is the equilibrium constant for the complex coming apart. A low value points to a tighter complex. In general, koff refers to a measure of how fast the partners let go of each other. Higher therefore signals fast dissociation. A word on the kon: it is the second-order rate constant of association. Read a low kon as slower complex formation.
